Results from patent publication US20140037667A1.

Target: env polypeptide of the LR1-C1 isolate (HIV-1 (variant of clade B primary isolate AC10))
Experiment: virion capture assay, titration of virions on 4E10-coated plates, p24 ELISA

Substance: 4E10 antibody
- fold increase in affinity against the AC10 wild-type variant: 4 fold
